Source: patent US20180155451A1 (published 2018)

T1: FcγRIIb (human, UniProt P31994 43-217)
T1 construct: extracellular domain; also called FcgRIIb; 2b
T1 sequence (looked up): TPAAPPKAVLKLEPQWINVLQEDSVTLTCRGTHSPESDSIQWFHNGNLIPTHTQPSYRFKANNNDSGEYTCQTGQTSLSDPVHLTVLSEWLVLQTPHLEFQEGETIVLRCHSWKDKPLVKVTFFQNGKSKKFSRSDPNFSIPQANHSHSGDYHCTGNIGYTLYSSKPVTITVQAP


Columns and labels:
[1] = target: T2, FcγRIa (human, UniProt P12314 16-292); assay: SPR, captured antibody; relative to GpH7-A5/GpH7-B3/GpL16-k0
T2 construct: extracellular domain; also called FcgRI; 1a

[2] = target: T1, FcγRIIb; assay: as above

T2 sequence (P12314 16-292): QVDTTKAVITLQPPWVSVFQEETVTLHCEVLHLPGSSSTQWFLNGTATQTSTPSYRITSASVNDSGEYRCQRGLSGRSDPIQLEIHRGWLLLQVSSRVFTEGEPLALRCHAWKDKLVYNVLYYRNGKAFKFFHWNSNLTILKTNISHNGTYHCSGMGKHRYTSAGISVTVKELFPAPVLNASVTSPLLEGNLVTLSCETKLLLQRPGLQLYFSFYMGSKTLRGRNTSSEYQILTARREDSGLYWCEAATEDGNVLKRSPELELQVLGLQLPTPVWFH

Binder	He/Con_1a [1]	He/Con_2b [2]
GpH7-A5/GpH7-B3 variant (L235_02A)/GpL16-k0 (antibody, human IgG1, kappa, IgG1 heterodimer, mutation in the GpH7-B3 chain only; also called He Ab) heavy 1: not shown heavy 2: not shown light: DIVMTQSPLSLPVTPGEPASISCQASESLVHSNRNTYLHWYLQKPGQSPQLLIYKVSNRFSGVPDRFSGSGSGTDFTLKISRVEAEDVGVYYCSQNTHVPPTFGQGTKVEIERTVAAPSVFIFPPSDEQLKSGTASVVCLLNNFYPREAKVQWKVDNALQSGNSQESVTEQDSKDSTYSLSSTLTLSKADYEKHKVYACEVTHQGLSSPVTKSFNRGEC	92.2 relative, HeCon Ab = 100	63 relative, HeCon Ab = 100
GpH7-A5/GpH7-B3 variant (L234_14T)/GpL16-k0 (antibody, human IgG1, kappa, IgG1 heterodimer, mutation in the GpH7-B3 chain only; also called He Ab) heavy 1: not shown heavy 2: not shown light: DIVMTQSPLSLPVTPGEPASISCQASESLVHSNRNTYLHWYLQKPGQSPQLLIYKVSNRFSGVPDRFSGSGSGTDFTLKISRVEAEDVGVYYCSQNTHVPPTFGQGTKVEIERTVAAPSVFIFPPSDEQLKSGTASVVCLLNNFYPREAKVQWKVDNALQSGNSQESVTEQDSKDSTYSLSSTLTLSKADYEKHKVYACEVTHQGLSSPVTKSFNRGEC	98.6 relative, HeCon Ab = 100	62.5 relative, HeCon Ab = 100
GpH7-A5/GpH7-B3 variant (H268_12R)/GpL16-k0 (antibody, human IgG1, kappa, IgG1 heterodimer, mutation in the GpH7-B3 chain only; also called He Ab) heavy 1: not shown heavy 2: not shown light: DIVMTQSPLSLPVTPGEPASISCQASESLVHSNRNTYLHWYLQKPGQSPQLLIYKVSNRFSGVPDRFSGSGSGTDFTLKISRVEAEDVGVYYCSQNTHVPPTFGQGTKVEIERTVAAPSVFIFPPSDEQLKSGTASVVCLLNNFYPREAKVQWKVDNALQSGNSQESVTEQDSKDSTYSLSSTLTLSKADYEKHKVYACEVTHQGLSSPVTKSFNRGEC	106 relative, HeCon Ab = 100	89.8 relative, HeCon Ab = 100
GpH7-A5/GpH7-B3 variant (L235_01G)/GpL16-k0 (antibody, human IgG1, kappa, IgG1 heterodimer, mutation in the GpH7-B3 chain only; also called He Ab) heavy 1: not shown heavy 2: not shown light: DIVMTQSPLSLPVTPGEPASISCQASESLVHSNRNTYLHWYLQKPGQSPQLLIYKVSNRFSGVPDRFSGSGSGTDFTLKISRVEAEDVGVYYCSQNTHVPPTFGQGTKVEIERTVAAPSVFIFPPSDEQLKSGTASVVCLLNNFYPREAKVQWKVDNALQSGNSQESVTEQDSKDSTYSLSSTLTLSKADYEKHKVYACEVTHQGLSSPVTKSFNRGEC	87.2 relative, HeCon Ab = 100	35.4 relative, HeCon Ab = 100
GpH7-A5/GpH7-B3 variant (L234_05P)/GpL16-k0 (antibody, human IgG1, kappa, IgG1 heterodimer, mutation in the GpH7-B3 chain only; also called He Ab) heavy 1: not shown heavy 2: not shown light: DIVMTQSPLSLPVTPGEPASISCQASESLVHSNRNTYLHWYLQKPGQSPQLLIYKVSNRFSGVPDRFSGSGSGTDFTLKISRVEAEDVGVYYCSQNTHVPPTFGQGTKVEIERTVAAPSVFIFPPSDEQLKSGTASVVCLLNNFYPREAKVQWKVDNALQSGNSQESVTEQDSKDSTYSLSSTLTLSKADYEKHKVYACEVTHQGLSSPVTKSFNRGEC	99.9 relative, HeCon Ab = 100	72.9 relative, HeCon Ab = 100

Now from value to binder:

He/Con_1a [1]	He/Con_2b [2]	Binder
96.1 relative, HeCon Ab = 100	50.7 relative, HeCon Ab = 100	GpH7-A5/GpH7-B3 variant (L234_01G)/GpL16-k0 (antibody, human IgG1, kappa, IgG1 heterodimer, mutation in the GpH7-B3 chain only; also called He Ab) heavy 1: not shown heavy 2: not shown light: DIVMTQSPLSLPVTPGEPASISCQASESLVHSNRNTYLHWYLQKPGQSPQLLIYKVSNRFSGVPDRFSGSGSGTDFTLKISRVEAEDVGVYYCSQNTHVPPTFGQGTKVEIERTVAAPSVFIFPPSDEQLKSGTASVVCLLNNFYPREAKVQWKVDNALQSGNSQESVTEQDSKDSTYSLSSTLTLSKADYEKHKVYACEVTHQGLSSPVTKSFNRGEC
91.8 relative, HeCon Ab = 100	16.2 relative, HeCon Ab = 100	GpH7-A5/GpH7-B3 variant (L234_11K)/GpL16-k0 (antibody, human IgG1, kappa, IgG1 heterodimer, mutation in the GpH7-B3 chain only; also called He Ab) heavy 1: not shown heavy 2: not shown light: DIVMTQSPLSLPVTPGEPASISCQASESLVHSNRNTYLHWYLQKPGQSPQLLIYKVSNRFSGVPDRFSGSGSGTDFTLKISRVEAEDVGVYYCSQNTHVPPTFGQGTKVEIERTVAAPSVFIFPPSDEQLKSGTASVVCLLNNFYPREAKVQWKVDNALQSGNSQESVTEQDSKDSTYSLSSTLTLSKADYEKHKVYACEVTHQGLSSPVTKSFNRGEC
103 relative, HeCon Ab = 100	80.9 relative, HeCon Ab = 100	GpH7-A5/GpH7-B3 variant (L234_07I)/GpL16-k0 (antibody, human IgG1, kappa, IgG1 heterodimer, mutation in the GpH7-B3 chain only; also called He Ab) heavy 1: not shown heavy 2: not shown light: DIVMTQSPLSLPVTPGEPASISCQASESLVHSNRNTYLHWYLQKPGQSPQLLIYKVSNRFSGVPDRFSGSGSGTDFTLKISRVEAEDVGVYYCSQNTHVPPTFGQGTKVEIERTVAAPSVFIFPPSDEQLKSGTASVVCLLNNFYPREAKVQWKVDNALQSGNSQESVTEQDSKDSTYSLSSTLTLSKADYEKHKVYACEVTHQGLSSPVTKSFNRGEC
106 relative, HeCon Ab = 100	83 relative, HeCon Ab = 100	GpH7-A5/GpH7-B3 variant (H268_11K)/GpL16-k0 (antibody, human IgG1, kappa, IgG1 heterodimer, mutation in the GpH7-B3 chain only; also called He Ab) heavy 1: not shown heavy 2: not shown light: DIVMTQSPLSLPVTPGEPASISCQASESLVHSNRNTYLHWYLQKPGQSPQLLIYKVSNRFSGVPDRFSGSGSGTDFTLKISRVEAEDVGVYYCSQNTHVPPTFGQGTKVEIERTVAAPSVFIFPPSDEQLKSGTASVVCLLNNFYPREAKVQWKVDNALQSGNSQESVTEQDSKDSTYSLSSTLTLSKADYEKHKVYACEVTHQGLSSPVTKSFNRGEC
95.7 relative, HeCon Ab = 100	60.3 relative, HeCon Ab = 100	GpH7-A5/GpH7-B3 variant (L234_19Q)/GpL16-k0 (antibody, human IgG1, kappa, IgG1 heterodimer, mutation in the GpH7-B3 chain only; also called He Ab) heavy 1: not shown heavy 2: not shown light: DIVMTQSPLSLPVTPGEPASISCQASESLVHSNRNTYLHWYLQKPGQSPQLLIYKVSNRFSGVPDRFSGSGSGTDFTLKISRVEAEDVGVYYCSQNTHVPPTFGQGTKVEIERTVAAPSVFIFPPSDEQLKSGTASVVCLLNNFYPREAKVQWKVDNALQSGNSQESVTEQDSKDSTYSLSSTLTLSKADYEKHKVYACEVTHQGLSSPVTKSFNRGEC
